In patent US20230002478A1:

What was measured:
Details in all cases: remark: other sources report otherwise
[1] = target: S1 RBD fused to mouse Fc, Beta variant (SARS-CoV-2), P0DTC2; assay: flow cytometry: inhibition of S1 RBD-mFc binding to Vero E6 cells (ACE2)
[2] = target: biotinylated D614G SARS-CoV-2 spike trimer (SARS-CoV-2), P0DTC2; assay: AlphaLISA, inhibition of ACE2-muFc / biotinylated spike complex
[3] = target: biotinylated SARS-CoV-2 spike RBD (Ancestral) (SARS-CoV-2), P0DTC2; assay: as above
[4] = target: SARS-CoV-2 S RBD (N439K) (SARS-CoV-2), P0DTC2; assay: SPR
[5] = target: SARS-CoV-2 S Trimer (SARS-CoV-2), P0DTC2; assay: SPR
[6] = target: SARS-CoV-2 S RBD (Y453F) (SARS-CoV-2), P0DTC2; assay: SPR
[7] = target: SARS-CoV-2 S1-Fc (South Africa 178-08) (SARS-CoV-2), P0DTC2; assay: SPR
[8] = target: SARS-CoV-2 S RBD (E484K) (SARS-CoV-2), P0DTC2; assay: SPR
[9] = target: SARS-CoV-2 S RBD (N501Y) (SARS-CoV-2), P0DTC2; assay: SPR
[10] = target: SARS-CoV-2 S1 (D614G) (SARS-CoV-2), P0DTC2; assay: SPR
[11] = target: SARS-CoV-2 S RBD (K417N) (SARS-CoV-2), P0DTC2; assay: SPR
[12] = target: S1 RBD-mFc (Acro SPD-05259) (SARS-CoV-2), P0DTC2; assay: flow cytometry: inhibition of S1 RBD-mFc binding to Vero E6 cells (ACE2)
[13] = target: biotinylated SARS-CoV-2 spike trimer, Delta (SARS-CoV-2), P0DTC2; assay: AlphaLISA, inhibition of ACE2-muFc / biotinylated spike complex

B1: antibody 202-03 (Fc fusion)
chain: EVQLVESGGGLVQPGGSLRLSCAASGFTFSPSWMGWFRQAPGKEREFVATINEYGGRNYADSVKGRFTISADNSKNTAYLQMNSLKPEDTAVYYCARVDRDFDYWGQGTLVTVSS
B1 was tested, and the IC50 [1] was 0.587 nM, the IC50 [2] was 4 nM and the IC50 [3] was 8.3 nM.

B2: 6-3 (Fc fusion)
chain: EVQLVESGGGLVQPGGSLRLSCAASGFTFSPSWMGWFRQAPGKEREFVATINEYGGRNYADSVKGRFTISADNSKNTAYLQMNSLKPEDTAVYYCARVDRDFDYWGQGTLVTVSS
B2 was tested, and the Kd [4] was 9.5 nM, the Kd [5] was 2.4 nM and the Kd [6] was 5.7 nM. For the same binder, the Kd [7] was 6.1 nM, the Kd [8] was 4.6 nM and the Kd [9] was 0.71 nM. It also gave a Kd [10] of 19 nM and a Kd [11] of 5.9 nM.

B3: antibody 339-031 (Fc fusion)
chain: EVQLVESGGGLVQPGGSLRLSCAASGSTFSINAMGWFRQAPGKEREFVAGITSSGGYTNYADSVKGRFTISADNSKNTAYLQMNSLKPEDTAVYYCAADGVPEYSDYASGPVWGQGTLVTVSS
Work on B3 yielded an IC50 [1] of over 100 nM, an IC50 [12] of 1.25 nM and an IC50 [13] of 3 nM. It also gave an IC50 [2] of 2.1 nM and an IC50 [3] of 5.6 nM.
